Results on 167 variants are retold here after the RNAGym collection of RNA variant scans (doi:10.7554/elife.80360).

B1: HDV Ribozyme (parent)
chain: GGCCGGCAUGGUCCCAGCCUCCUCGCUGGCGCCGGCUGGGCAACAUUCCGAGGGGACCGUCCCCUCGGUAAUGGCGAAUGGGACCCA

In the data set the parent is B1. Briefly: self-cleavage, relative activity (ratio to wild type); higher = more cleavage; co-transcriptional.
In the case of C15A G25C, the self-cleavage is 0.0692.
Consider U9A A45G, for which the self-cleavage amounted to 0.733.
For A45U A83C, the self-cleavage amounted to 0.0875.
To G52A C86G belongs 1.04; to G25C C84A, 0.0489.
For the variant G10C U79G, the self-cleavage was 0.346.
Then U9C G40C, with 0.135; and A45G A87C, with 1.11.
For G25C A56U, the self-cleavage is 0.178.
In the case of G29U G59C, the self-cleavage came to 0.104.
As for C48G G80A, the self-cleavage is 0.4.
For G2A A16C, the self-cleavage amounted to 0.0733.
Take C24G G28U: the self-cleavage worked out at 0.0594.
Consider G31C C64U, for which the self-cleavage turned out to be 0.324.
Consider A16U U60C, for which the self-cleavage is 0.831.
As for C22G G76C, the self-cleavage worked out at 0.151.
In the case of C24U C57G, the self-cleavage was 0.779.
On to C44G G55U, for which the self-cleavage stood at 0.65.
Consider U12A A77G, for which the self-cleavage was found to be 0.151.
As for G2A G38C, the self-cleavage came to 0.07.
Then G74A G76C, with 0.464.
With U37C C84A, the self-cleavage was determined as 0.697.
For G39A U69C, the self-cleavage came out at 0.609.
With U20A U46C, the self-cleavage is 0.
Turning to G2C G54A, the self-cleavage turned out to be 0.0777.
Then G38U A78G, with 0.203; and G5C G35C, with 0.147.
For the variant G2U A78U, the self-cleavage was 0.
As to C21G U23A, the self-cleavage is 0.0536.
Then U65C U79G, with 0.396; and G28C C85A, with 0.0475.
To A16G C49U belongs 1.23.
Turning to C66U C75U, the self-cleavage is 0.173.
For G55C G73A, the self-cleavage turned out to be 0.751.
In the case of G25C U72A, the self-cleavage was determined as 0.0791.
For G6U C85G, the self-cleavage was found to be 0.297.
Take C21U U65A: the self-cleavage is 0.293.
As to G2U G25C, the self-cleavage turned out to be 0.0244.
As to C32U A45G, the self-cleavage stood at 0.755.
Take C32U C84U: the self-cleavage came to 0.763.
As for C22A U46C, the self-cleavage was 0.0692.
To G54A C66G belongs 0.821.
In the case of U12C C44G, the self-cleavage came out at 0.
For G6U U12G, the self-cleavage was 0.
To C63A C64G belongs 0.506.
To G11A A43U belongs 0.198.
In the case of G17C U23G, the self-cleavage was 0.123.
Turning to C18U C86A, the self-cleavage came to 0.82.
Consider A8G U12C, for which the self-cleavage came out at 0.151.
Take C63G C75A: the self-cleavage came out at 0.111.
Regarding U37A G59A, the self-cleavage was 0.237.
Turning to C32U C85G, the self-cleavage is 0.831.
With G28A U37C, the self-cleavage turned out to be 0.151.
G5U C30U: the self-cleavage amounted to 0.237.
On to G2U G68A, for which the self-cleavage is 0.0264.
Then U72C C75A, with 0.256; and G34A U79A, with 0.0755; and G34A U79G, with 0.0875.
As to C61U C85A, the self-cleavage was 1.07.
On to G38C G40A, for which the self-cleavage is 0.0978.
Take C24G G82C: the self-cleavage was 0.
A70G C85G: the self-cleavage stood at 0.831.
Then U60A C85A, with 0.831; and A42U C57U, with 0.428.
Consider A51C G54A, for which the self-cleavage turned out to be 0.716.
With C41A A87C, the self-cleavage amounted to 1.
For the variant C13U U23A, the self-cleavage amounted to 0.571.
Then U20G U47C, with 0.133; and C24A A78G, with 0.492.
Consider G5A A45U, for which the self-cleavage turned out to be 0.
For G1U C30U, the self-cleavage amounted to 0.35.
On to C49U C84U, for which the self-cleavage is 0.676.
In the case of G81C C84U, the self-cleavage stood at 0.141.
For the variant G81C C84G, the self-cleavage is 0.256.
To G10A C49U belongs 0.831.
As to C7U G82A, the self-cleavage was 0.251.
Regarding G31C A42U, the self-cleavage is 0.0707.
With C22U C75U, the self-cleavage amounted to 0.214.
In the case of G40A A71U, the self-cleavage was found to be 0.796.
Take U72A A87G: the self-cleavage was 0.452.
As for U46G A70U, the self-cleavage came to 0.997.
For U37C C62A, the self-cleavage is 1.05.
In the case of C33U A78U, the self-cleavage is 0.378.
G53A G55U: the self-cleavage was determined as 1.17.
With C7U U47A, the self-cleavage is 0.554.
For the variant C63A G76U, the self-cleavage was found to be 1.15.
With G28C A70G, the self-cleavage is 0.
In the case of G2C A87G, the self-cleavage is 0.0671.
Take C32G G68A: the self-cleavage was 0.185.
Consider U37G C66G, for which the self-cleavage turned out to be 0.135.
To C49U C57G belongs 1.19; to G6A G35U, 0.148; to C30A A43G, 0.0739.
In the case of C14A U69G, the self-cleavage came to 0.665.
Then A16U U72G, with 0.465.
Regarding U46C C86A, the self-cleavage stood at 0.849.
Take C4G C84G: the self-cleavage is 0.
For C63U G76A, the self-cleavage was 0.855.
With U69C A87C, the self-cleavage was found to be 1.18.
Consider G39U U46A, for which the self-cleavage was determined as 0.285.
To C13A C32G belongs 0.0346; to U65A C66U, 0.812.
As for U23C C49A, the self-cleavage came to 0.987.
On to G28U U37C, for which the self-cleavage came to 0.141.
G5A G82U: the self-cleavage was found to be 0.0354.
To U23C A83C belongs 0.302.
With G54U A71C, the self-cleavage was 0.654.
On to U12G G81A, for which the self-cleavage turned out to be 0.201.
For the variant C21G G50A, the self-cleavage came to 0.
To A42G C58G belongs 0.554.
Turning to G17U U20G, the self-cleavage worked out at 0.
In the case of C18A A51G, the self-cleavage came to 0.0554.
Turning to C33G A51G, the self-cleavage worked out at 0.111.
As for G1C U23A, the self-cleavage is 0.128.
Consider C66G G73A, for which the self-cleavage came out at 0.434.
As for G11A G73U, the self-cleavage was 0.0769.
Turning to U46G G82U, the self-cleavage amounted to 0.229.
As for C24U C63U, the self-cleavage is 0.726.
As to C13A G40U, the self-cleavage stood at 0.0326.
For C63A U65G, the self-cleavage came to 0.914.
To C3G A43C belongs 0.261; to C7A C48A, 0.604.
As for C62G C63G, the self-cleavage amounted to 0.706.
Take A43U A78C: the self-cleavage came out at 0.0817.
For C13G A16G, the self-cleavage turned out to be 0.0831.
To G28A C33A belongs 0.107.
In the case of C4U C22G, the self-cleavage was determined as 0.111.
Consider A8U C30U, for which the self-cleavage is 0.529.
Regarding A45U G73C, the self-cleavage came to 0.62.
U46A C48G: the self-cleavage was 0.802.
Then C26G C64A, with 0.554; and U9C G74A, with 0.653.
A16G C58G: the self-cleavage stood at 0.776.
G68C U69G: the self-cleavage is 1.21.
As for G40C, the self-cleavage was found to be 0.299.
On to A45C C84G, for which the self-cleavage worked out at 0.297.
Then C41A C75G, with 0.0773.
As for G54U G74U, the self-cleavage was 0.421.
Then G11C U65A, with 0.293.
For the variant C30G A77G, the self-cleavage is 0.189.
To C41U G67C belongs 0.554; to C13G C14U, 0.208.
For the variant U79G C86G, the self-cleavage turned out to be 0.712.
As to U23G U27A, the self-cleavage is 0.594.
As for G53U G74A, the self-cleavage is 0.646.
With C22A C86G, the self-cleavage worked out at 0.208.
Take U9A C24G: the self-cleavage was 0.111.
For the variant A42U C62A, the self-cleavage is 0.618.
On to U23G U47A, for which the self-cleavage stood at 0.864.
Consider C21G U79C, for which the self-cleavage came out at 0.0244.
For the variant A78G C86U, the self-cleavage amounted to 0.643.
A8C G50U: the self-cleavage was 0.864.
As to A8G G76C, the self-cleavage turned out to be 1.13.
On to U12A U79G, for which the self-cleavage was 0.302.
Regarding G6A U9C, the self-cleavage was 0.795.
U12A U60C: the self-cleavage was 0.391.
G81C A87U: the self-cleavage stood at 0.265.
For G81C A87G, the self-cleavage is 0.306.
With G1A C13A, the self-cleavage worked out at 0.0639.
G11U G35C: the self-cleavage worked out at 0.0449.
Consider U12G C30A, for which the self-cleavage was 0.332.
To C15A A78U belongs 0.0639; to C33A G40A, 0.214.
For A43U A51C, the self-cleavage worked out at 0.525.
C19A C58G: the self-cleavage was 0.0519.
Regarding G55A C61U, the self-cleavage came out at 0.96.
As to G76U G82A, the self-cleavage stood at 0.343.
